Measurements reported in paper PMC11336091.

Biological target: T1, BmFoxO (Bombyx mori, UniProt H9BVM3 1-512)
T1 sequence: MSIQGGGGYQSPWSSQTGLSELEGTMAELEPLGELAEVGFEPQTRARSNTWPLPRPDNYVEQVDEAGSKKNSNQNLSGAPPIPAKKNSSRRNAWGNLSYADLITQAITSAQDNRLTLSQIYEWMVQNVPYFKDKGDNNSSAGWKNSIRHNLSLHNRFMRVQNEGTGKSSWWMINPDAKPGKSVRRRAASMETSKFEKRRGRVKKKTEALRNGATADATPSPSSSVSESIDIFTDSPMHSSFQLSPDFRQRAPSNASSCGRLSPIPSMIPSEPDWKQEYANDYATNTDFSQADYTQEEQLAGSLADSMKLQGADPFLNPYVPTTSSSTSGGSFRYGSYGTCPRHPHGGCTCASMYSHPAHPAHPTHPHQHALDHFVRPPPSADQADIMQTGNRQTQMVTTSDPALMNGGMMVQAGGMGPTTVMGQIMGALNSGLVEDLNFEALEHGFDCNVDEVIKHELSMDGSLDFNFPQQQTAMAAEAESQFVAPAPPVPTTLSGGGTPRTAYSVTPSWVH
Assay: EMSA

B1: BmOSER1 promoter EMSA probe (dsDNA)
DNA 1: TGTATTAAAAACTTATATAAACTGTGATCT
DNA 2: AGATCACAGTTTATATAAGTTTTTAATACA
Does B1 bind?
Result: binds
